{
  "source": "paper PMC3607736",
  "about": "“HAD hydrolase function unveiled by substrate screening: enzymatic characterization of Arabidopsis thaliana subclass I phosphosugar phosphatase AtSgpp” (Planta, 2012)",
  "proteins": {"B1": {"name": "AtSgpp (MBP-AtSgpp, At2g38740) (Arabidopsis thaliana) (protein)", "chain": "MNGFSDLNPSESKPSLSQLAPLEAILFDVDGTLCDSDPIHLIAFQELLQEIGFNNGVPIDEKFFVENIAGKHNSEIALLLFPDDVSRGLKFCDEKEALYRKIVAEKIKPLDGLIKLTKWIEDRGLKRAAVTNAPKENAELMISKLGLTDFFQAVILGSECEFPKPHPGPYLKALEVLNVSKEHTLVFEDSISGIKAGVAAGMPVIGLTTGNPASLLMQAKPAFLIENYADPKLWAVLEELDNKS", "notes": "N-terminal MBP fusion (pMAL-c2X, Ile-Ser-Glu-Phe linker before Met1); E. coli TB1, amylose resin"}},
  "substrate": "O=P(O)(O)OCC(O)CO",
  "assay": "inorganic phosphate release (Ames), non-linear regression",
  "assay_type": "biochemical, Arabidopsis thaliana",
  "conditions": "20 mM Tris-HCl pH 7.0, 5 mM MgCl2, 32 °C, apparent Km, MBP fusion",
  "description": "inorganic phosphate release (Ames), non-linear regression on AtSgpp (MBP-AtSgpp, At2g38740)",
  "data": [
    {"protein": "B1", "values": [
      {"measurement": "Km", "value": "(7.3 ± 0.2) × 10^−3 M"},
      {"measurement": "Vmax", "value": 0.498, "unit": "µmol/min"},
      {"measurement": "kcat", "value": "23 ± 3", "unit": "s⁻¹"},
      {"measurement": "kcat/Km", "value": 3100, "unit": "M⁻¹ s⁻¹"}
    ]}
  ]
}
